Results as given in patent US9260500B2, “Peptide and use thereof” (Takeda Pharmaceutical Company Limited, priority 2009, dated 2016).
Starred links: 1 amine or outer side, 2 acyl side, 3 side chain; linkers in the order of their positions; H or OH if unused. Non-standard residues stand in square brackets, D forms with d. No end group written: not given here. *: point of attachment. Tyr(Me) = O-methyltyrosine, COc1ccc(C[C@H](N[*:1])C(=O)[*:2])cc1; Phe(4-NH2) = Nc1ccc(C[C@H](N)C(=O)O)cc1; Dap(CONH2) = NC(=O)NC[C@H](N)C(=O)O; tBuAla = CC(C)(C)C[C@H](N)C(=O)O; 4Pal = N[C@@H](Cc1ccncc1)C(=O)O; dHyp = O=C(O)[C@H]1C[C@H](O)CN1; Cha = N[C@@H](CC1CCCCC1)C(=O)O; Cit = NC(=O)NCCC[C@H](N)C(=O)O; dIva = CC[C@@](C)(N)C(=O)O; dPip = O=C(O)[C@H]1CCCCN1; Iva = CC[C@](C)(N)C(=O)O; Nle = CCCC[C@H](N)C(=O)O; Abu = CC[C@H](N)C(=O)O; Aib = CC(C)(N)C(=O)O; Bz = O=C(c1ccccc1)*; βAla = NCCC(=O)O

Key:
human Y2 receptor [1] = biological target: T1, human Y2 receptor (Homo sapiens, UniProt P49146); assay: Receptor Binding Assay (RBA) for Human Y2, [125I]-PYY displacement on hY2R/CHO membrane fraction; conditions: IC50 of test compound/IC50 of PYY(3-36) (PYY(3-36) taken as 1)
T1 construct: expressed in transfected cells; membrane fraction
T1 sequence (P49146 1-381): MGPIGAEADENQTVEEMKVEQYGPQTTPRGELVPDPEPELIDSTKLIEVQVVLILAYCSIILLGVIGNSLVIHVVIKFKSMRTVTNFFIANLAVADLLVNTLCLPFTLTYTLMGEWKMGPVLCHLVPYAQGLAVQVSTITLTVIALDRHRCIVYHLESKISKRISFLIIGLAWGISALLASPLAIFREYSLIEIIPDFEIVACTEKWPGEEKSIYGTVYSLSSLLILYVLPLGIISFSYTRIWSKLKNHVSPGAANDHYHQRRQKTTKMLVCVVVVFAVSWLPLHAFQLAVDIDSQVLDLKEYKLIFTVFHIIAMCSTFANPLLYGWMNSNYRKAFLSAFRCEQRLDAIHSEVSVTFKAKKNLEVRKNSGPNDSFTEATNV
In short: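 Read-out is [125I]-PYY displacement from membranes of CHO/dhfr− cells stably transfected with human Y2R. Membranes were obtained by disrupting cells in a buffer of 10 mM NaHCO3, 5 mM EDTA and protease inhibitors.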

human Y2 receptor [2] = biological target: T1, human Y2 receptor; assay: Human Y2 Receptor G Protein Binding Assay (GBA), [35S]GTPγS; type: biochemical; conditions: EC50 of test compound/EC50 of PYY(3-36) (PYY3-36 taken as 1), hY2R/CHO membrane fraction
In short: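 Agonism measured as [35S]GTPγS binding, read by GF/C filtration and scintillation counting after 120 min at room temperature, using human Y2 membranes at 1 μg protein/mL in pH 7.4 Tris/MgCl2/NaCl/GDP buffer. Compound serially diluted 100 μM–1 nM; EC50 normalized to PYY(3-36) (ratio = compound/PYY).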

Substance	RBA IC50 Ratio (human Y2 receptor [1])	GBA EC50 Ratio (human Y2 receptor [2])
Ac-[D-Hyp24, Cha27,36, Leu(Me)28, Lys30, Aib31]-PYY(23-36) (Ac-S[dHyp]RH[Cha][tBuAla]NK[Aib]TRQR[Cha]-NH2; SMILES CC(=O)N[C@@H](CO)C(=O)N1C[C@@H](O)C[C@@H]1C(=O)N[C@@H](CCCNC(=N)N)C(=O)N[C@@H](Cc1c[nH]cn1)C(=O)N[C@@H](CC1CCCCC1)C(=O)N[C@@H](CC(C)(C)C)C(=O)N[C@@H](CC(N)=O)C(=O)N[C@@H](CCCCN)C(=O)NC(C)(C)C(=O)N[C@H](C(=O)N[C@@H](CCCNC(=N)N)C(=O)N[C@@H](CCC(N)=O)C(=O)N[C@@H](CCCNC(=N)N)C(=O)N[C@@H](CC1CCCCC1)C(N)=O)[C@@H](C)O) [compound No. 203]	0.38	0.76
Ac-[Abu23, D-Pro24, Abu26, Cha27,28,36, Aib31]-PYY(23-36) (Ac-[Abu][dP]R[Abu][Cha][Cha]NL[Aib]TRQR[Cha]-NH2; SMILES CC[C@H](NC(=O)[C@H](CCCNC(=N)N)NC(=O)[C@H]1CCCN1C(=O)[C@H](CC)NC(C)=O)C(=O)N[C@@H](CC1CCCCC1)C(=O)N[C@@H](CC1CCCCC1)C(=O)N[C@@H](CC(N)=O)C(=O)N[C@@H](CC(C)C)C(=O)NC(C)(C)C(=O)N[C@H](C(=O)N[C@@H](CCCNC(=N)N)C(=O)N[C@@H](CCC(N)=O)C(=O)N[C@@H](CCCNC(=N)N)C(=O)N[C@@H](CC1CCCCC1)C(N)=O)[C@@H](C)O) [compound No. 105]	6.9	4.0
Ac-[D-Pro24, Alb26, Cha27,28,36, Aib31]-PYY(23-36) (Ac-S[dP]R[Dap(CONH2)][Cha][Cha]NL[Aib]TRQR[Cha]-NH2; SMILES CC(=O)N[C@@H](CO)C(=O)N1CCC[C@@H]1C(=O)N[C@@H](CCCNC(=N)N)C(=O)N[C@@H](CNC(N)=O)C(=O)N[C@@H](CC1CCCCC1)C(=O)N[C@@H](CC1CCCCC1)C(=O)N[C@@H](CC(N)=O)C(=O)N[C@@H](CC(C)C)C(=O)NC(C)(C)C(=O)N[C@H](C(=O)N[C@@H](CCCNC(=N)N)C(=O)N[C@@H](CCC(N)=O)C(=O)N[C@@H](CCCNC(=N)N)C(=O)N[C@@H](CC1CCCCC1)C(N)=O)[C@@H](C)O) [compound No. 149]	12	2.2
Ac-[D-Pro24, Cit25, Cha27,36, Aib28,31, Lys30]-PYY(23-36) (Ac-S[dP][Cit]H[Cha][Aib]NK[Aib]TRQR[Cha]-NH2; SMILES CC(=O)N[C@@H](CO)C(=O)N1CCC[C@@H]1C(=O)N[C@@H](CCCNC(N)=O)C(=O)N[C@@H](Cc1c[nH]cn1)C(=O)N[C@@H](CC1CCCCC1)C(=O)NC(C)(C)C(=O)N[C@@H](CC(N)=O)C(=O)N[C@@H](CCCCN)C(=O)NC(C)(C)C(=O)N[C@H](C(=O)N[C@@H](CCCNC(=N)N)C(=O)N[C@@H](CCC(N)=O)C(=O)N[C@@H](CCCNC(=N)N)C(=O)N[C@@H](CC1CCCCC1)C(N)=O)[C@@H](C)O) [compound No. 226]	6.2	4.6
Benzoyl-[Cha27,36, Ile28,31, Phe(4NH2)30]-PYY(25-36) (Bz-RH[Cha]IN[Phe(4-NH2)]ITRQR[Cha]-NH2; SMILES CC[C@H](C)[C@H](NC(=O)[C@H](CC1CCCCC1)NC(=O)[C@H](Cc1c[nH]cn1)NC(=O)[C@H](CCCNC(=N)N)NC(=O)c1ccccc1)C(=O)N[C@@H](CC(N)=O)C(=O)N[C@@H](Cc1ccc(N)cc1)C(=O)N[C@H](C(=O)N[C@H](C(=O)N[C@@H](CCCNC(=N)N)C(=O)N[C@@H](CCC(N)=O)C(=O)N[C@@H](CCCNC(=N)N)C(=O)N[C@@H](CC1CCCCC1)C(N)=O)[C@@H](C)O)[C@@H](C)CC) [compound No. 73]	12	6.6
[βAla23, D-Pro24, Cha27,28,36, Aib31]-PYY(23-36) ([βAla][dP]RH[Cha][Cha]NL[Aib]TRQR[Cha]-NH2; N-terminus assumed; SMILES CC(C)C[C@H](NC(=O)[C@H](CC(N)=O)NC(=O)[C@H](CC1CCCCC1)NC(=O)[C@H](CC1CCCCC1)NC(=O)[C@H](Cc1c[nH]cn1)NC(=O)[C@H](CCCNC(=N)N)NC(=O)[C@H]1CCCN1C(=O)CCN)C(=O)NC(C)(C)C(=O)N[C@H](C(=O)N[C@@H](CCCNC(=N)N)C(=O)N[C@@H](CCC(N)=O)C(=O)N[C@@H](CCCNC(=N)N)C(=O)N[C@@H](CC1CCCCC1)C(N)=O)[C@@H](C)O) [compound No. 116]	1.7	1.2
Ac-[Glu23, βAla24, Pya(4)26, Cha27,36, Aib28,31, Lys30]-PYY(23-36) (Ac-E[βAla]R[4Pal][Cha][Aib]NK[Aib]TRQR[Cha]-NH2; SMILES CC(=O)N[C@@H](CCC(=O)O)C(=O)NCCC(=O)N[C@@H](CCCNC(=N)N)C(=O)N[C@@H](Cc1ccncc1)C(=O)N[C@@H](CC1CCCCC1)C(=O)NC(C)(C)C(=O)N[C@@H](CC(N)=O)C(=O)N[C@@H](CCCCN)C(=O)NC(C)(C)C(=O)N[C@H](C(=O)N[C@@H](CCCNC(=N)N)C(=O)N[C@@H](CCC(N)=O)C(=O)N[C@@H](CCCNC(=N)N)C(=O)N[C@@H](CC1CCCCC1)C(N)=O)[C@@H](C)O) [compound No. 223]	7.4	3.9
Ac-[D-Pro24, Ala(4Pip)25, Pya(4)26, Cha27,36, Aib28,31, Lys30]-PYY(23-36) [compound No. 311] (Ac-S[dP][Ala(4Pip)][4Pal][Cha][Aib]NK[Aib]TRQR[Cha]-NH2; also: Ala(4Pip) configuration not fixed (D or L), former peak)	18	14
Ac-[D-Pro24, Tyr(Me)26, Cha27,36, Aib28,31, Lys30]-PYY(23-36) (Ac-S[dP]R[Tyr(Me)][Cha][Aib]NK[Aib]TRQR[Cha]-NH2; SMILES COc1ccc(C[C@H](NC(=O)[C@H](CCCNC(=N)N)NC(=O)[C@H]2CCCN2C(=O)[C@H](CO)NC(C)=O)C(=O)N[C@@H](CC2CCCCC2)C(=O)NC(C)(C)C(=O)N[C@@H](CC(N)=O)C(=O)N[C@@H](CCCCN)C(=O)NC(C)(C)C(=O)N[C@H](C(=O)N[C@@H](CCCNC(=N)N)C(=O)N[C@@H](CCC(N)=O)C(=O)N[C@@H](CCCNC(=N)N)C(=O)N[C@@H](CC2CCCCC2)C(N)=O)[C@@H](C)O)cc1) [compound No. 348]	0.88	1.4
Ac-[Glu23, D-Pic(2)24, Cha27,28,36, Aib31]-PYY(23-36) (Ac-E[dPip]RH[Cha][Cha]NL[Aib]TRQR[Cha]-NH2; SMILES CC(=O)N[C@@H](CCC(=O)O)C(=O)N1CCCC[C@@H]1C(=O)N[C@@H](CCCNC(=N)N)C(=O)N[C@@H](Cc1c[nH]cn1)C(=O)N[C@@H](CC1CCCCC1)C(=O)N[C@@H](CC1CCCCC1)C(=O)N[C@@H](CC(N)=O)C(=O)N[C@@H](CC(C)C)C(=O)NC(C)(C)C(=O)N[C@H](C(=O)N[C@@H](CCCNC(=N)N)C(=O)N[C@@H](CCC(N)=O)C(=O)N[C@@H](CCCNC(=N)N)C(=O)N[C@@H](CC1CCCCC1)C(N)=O)[C@@H](C)O) [compound No. 120]	17	10
Ac-[D-Pro24, Aib25,28,31, Cha27,36, Lys30]-PYY(23-36) (Ac-S[dP][Aib]H[Cha][Aib]NK[Aib]TRQR[Cha]-NH2; SMILES CC(=O)N[C@@H](CO)C(=O)N1CCC[C@@H]1C(=O)NC(C)(C)C(=O)N[C@@H](Cc1c[nH]cn1)C(=O)N[C@@H](CC1CCCCC1)C(=O)NC(C)(C)C(=O)N[C@@H](CC(N)=O)C(=O)N[C@@H](CCCCN)C(=O)NC(C)(C)C(=O)N[C@H](C(=O)N[C@@H](CCCNC(=N)N)C(=O)N[C@@H](CCC(N)=O)C(=O)N[C@@H](CCCNC(=N)N)C(=O)N[C@@H](CC1CCCCC1)C(N)=O)[C@@H](C)O) [compound No. 238]	24	11
Ac-[D-Pro24, Pya(4)26, Cha27,36, D-Iva28, Lys30, Iva31]-PYY(23-36) (Ac-S[dP]R[4Pal][Cha][dIva]NK[Iva]TRQR[Cha]-NH2; SMILES CC[C@@](C)(NC(=O)[C@H](CC1CCCCC1)NC(=O)[C@H](Cc1ccncc1)NC(=O)[C@H](CCCNC(=N)N)NC(=O)[C@H]1CCCN1C(=O)[C@H](CO)NC(C)=O)C(=O)N[C@@H](CC(N)=O)C(=O)N[C@@H](CCCCN)C(=O)N[C@@](C)(CC)C(=O)N[C@H](C(=O)N[C@@H](CCCNC(=N)N)C(=O)N[C@@H](CCC(N)=O)C(=O)N[C@@H](CCCNC(=N)N)C(=O)N[C@@H](CC1CCCCC1)C(N)=O)[C@@H](C)O) [compound No. 248]	3.4	1.1
Ac-[D-Pro24, Pya(4)26, Cha27,36, Aib28,31, Nle30]-PYY(23-36) (Ac-S[dP]R[4Pal][Cha][Aib]N[Nle][Aib]TRQR[Cha]-NH2; SMILES CCCC[C@H](NC(=O)[C@H](CC(N)=O)NC(=O)C(C)(C)NC(=O)[C@H](CC1CCCCC1)NC(=O)[C@H](Cc1ccncc1)NC(=O)[C@H](CCCNC(=N)N)NC(=O)[C@H]1CCCN1C(=O)[C@H](CO)NC(C)=O)C(=O)NC(C)(C)C(=O)N[C@H](C(=O)N[C@@H](CCCNC(=N)N)C(=O)N[C@@H](CCC(N)=O)C(=O)N[C@@H](CCCNC(=N)N)C(=O)N[C@@H](CC1CCCCC1)C(N)=O)[C@@H](C)O) [compound No. 267]	0.96	1.4
Ac-[Ala26, Ile28,31, Arg(Me)35]-PYY(22-36) [compound No. 1]	50	13
